T1: Isl-1-Myc (UniProt P61372 1-349)
T1 sequence: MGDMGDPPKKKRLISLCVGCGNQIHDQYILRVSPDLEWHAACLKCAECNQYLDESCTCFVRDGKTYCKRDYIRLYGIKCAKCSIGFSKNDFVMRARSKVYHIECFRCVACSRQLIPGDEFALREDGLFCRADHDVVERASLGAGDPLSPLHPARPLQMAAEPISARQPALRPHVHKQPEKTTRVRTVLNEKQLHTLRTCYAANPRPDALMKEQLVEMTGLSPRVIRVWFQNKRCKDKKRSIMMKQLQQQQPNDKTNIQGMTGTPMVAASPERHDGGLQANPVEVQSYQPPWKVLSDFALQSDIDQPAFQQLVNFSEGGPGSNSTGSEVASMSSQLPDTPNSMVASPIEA

B1: Pdx1 Area II-3 (dsDNA)
DNA 1: AATGCATGCAATTAGACCAGAAGTGCTAA
DNA 2: TTAGCACTTCTGGTCTAATTGCATGCATT
B2: Pdx1 Area IV-4 (dsDNA)
DNA 1: TTATTGCCTGCCTTTAATTGTACTTAT
DNA 2: ATAAGTACAATTAAAGGCAGGCAATAA
B3: Pdx1 Area I-4 (dsDNA)
DNA 1: GTATCACCCATAATGGATTTAGCCACCT
DNA 2: AGGTGGCTAAATCCATTATGGGTGATAC

What follows are binders tested against T1, Isl-1-Myc (assay: competition).

Binder | binding result
B1 | binds
B2 | binds
B3 | binds

Reference: PMC4237994
